These substances were tested against SARS-CoV-2 main protease M^pro (untagged, native termini) (SARS-CoV-2) (UniProt P0DTD1) (assay: ITC).
Substance “compound 4 (acetyl-Gly-Phe-His aldehyde, tripeptide derivative of AT1001)” has a Kd of 640 nM, a dH of -12.7 kcal/mol and a stoichiometry N of 1.04. Substance “compound 57 (BOC-Gly-Phe-His aldehyde) (peptide)” has a Kd of 442 nM, a dH of -14.5 kcal/mol and a stoichiometry N of 0.991. Work on “compound 58 (octanoyl-Gly-Phe-His aldehyde) (peptide)” yielded a Kd of 425 nM, a dH of -16.4 kcal/mol and a stoichiometry N of 0.966.

Reference: PMC9579148
